Laboratory results taken from US11723968B2.

What was measured:
[1] = target: Andes virus glycoprotein Gc, wild type (Andes virus (Andes orthohantavirus CHI-7913 isolate))
[2] = target: Andes virus glycoprotein Gc, wild type (Andes virus (Andes orthohantavirus CHI-7913 isolate)); remark: listed apart in the source

Q: How did the melting temperature (Tm) of the temperature-induced Gn/Gc dissociation [1] turn out when Andes virus glycoprotein Gn, wild type was run?
A: 37.7 ° C.

Q: And the melting temperature (Tm) of (Gn/Gc)4 dissociation [2]?
A: 36.3 ° C.
